Laboratory results taken from patent US20190194334A1.

Molecular target: cell surface (plasma membrane) nucleolin of human tumor cells (human) (UniProt P19338)
Experiment: flow cytometry of non-permeabilized MCF-7 cells, dot plot of side scatter against FITC fluorescence [B]

UniProt P19338, sequence (P19338 2-710 limits assumed): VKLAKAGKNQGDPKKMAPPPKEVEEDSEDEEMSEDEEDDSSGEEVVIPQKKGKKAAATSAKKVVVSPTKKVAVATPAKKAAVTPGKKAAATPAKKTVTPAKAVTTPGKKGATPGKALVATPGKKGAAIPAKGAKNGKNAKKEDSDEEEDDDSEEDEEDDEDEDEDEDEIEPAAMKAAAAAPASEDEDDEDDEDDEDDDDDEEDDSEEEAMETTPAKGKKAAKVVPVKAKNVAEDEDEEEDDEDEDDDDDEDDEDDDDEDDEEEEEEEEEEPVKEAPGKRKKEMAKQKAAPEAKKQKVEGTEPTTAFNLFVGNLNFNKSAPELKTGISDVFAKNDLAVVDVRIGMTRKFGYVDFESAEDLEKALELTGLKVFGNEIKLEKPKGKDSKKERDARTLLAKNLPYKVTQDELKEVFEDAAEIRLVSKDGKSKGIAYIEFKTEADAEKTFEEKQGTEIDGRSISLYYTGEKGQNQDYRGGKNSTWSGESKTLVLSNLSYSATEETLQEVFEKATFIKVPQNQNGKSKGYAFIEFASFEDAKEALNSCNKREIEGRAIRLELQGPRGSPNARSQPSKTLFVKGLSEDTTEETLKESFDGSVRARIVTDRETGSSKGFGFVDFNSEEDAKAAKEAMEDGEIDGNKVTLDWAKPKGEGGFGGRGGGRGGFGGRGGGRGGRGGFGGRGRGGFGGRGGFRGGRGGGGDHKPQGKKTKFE

Control IgG-FITC (antibody)
percent of cells in the FITC-positive gate: 1.5%
